Values quoted from earlier work, collected in paper PMC6952583 (Chembiochem : a European journal of chemical biology, 2019).

Target: ComD2 receptor (Streptococcus pneumoniae serotype 4, UniProt A0A0H2US84)
Conditions: read-out: ComD2 EC50; TIGR4pcomX::lacZ reporter strain; ref [20]

Question: With “CSP2(15): truncated version of CSP2, starting scaffold (EMRISRIILDFLFLR)” as the substance, how does the EC50 read?
Answer: Its EC50 is 21.9 nM.
